According to patent US20240043859A1, “HERBICIDE-RESISTANT PROTEIN, AND GENE AND USE THEREOF” (QINGDAO KINGAGROOT CHEMICAL COMPOUND CO., LTD., priority 2020, published 2024):
“Also recorded” adds a separate entry of the source.

B1: QYD51: AAD-like enzyme, SEQ ID NO. 101 (protein)
chain: MARTLDIEPIDATFGAVVRGIKVAEVDDETFRALYDAWLEYALLIFPDQHLKRDQQIAFAKRFGPLEFEMTAISNVRSDGTLRLEKDNDDVMKVLKGNMGWHHDSTYMPVQAKGAVFSAEEVPTIGGRTGFADMRAAYDALDPAMKARIEGLNAYHSLHYSQGRVGHQTKKSDGEYSGYGLHDGPVPLRPLVKTHPETGRKSLLAGRHAHNIPGLAQEESDRLLRELIDFACQPPRIYHHDWTPGEAVVWDNRCLMHQATPWDMTQRRIMWHSRIAGDPASESARPQP
modifications: Synthetic polypeptide, QYD51, D51
B2: QYD53: AAD-like enzyme, SEQ ID NO. 105 (protein)
chain: MASTLSLQPLEGITFGAVATGFRIAELDEPTWQALHDAWLDHALLIFPGQFLTRDEQIAFARRFGPLEFEMAAISNVKPDGTLRLEKDNDDMMKVLKGNMGWHADSTYMPVQAKGAVFSAEVVPTIGGETGWADMRAAYEALDAATREKIDGLSAFHSLHYSQSKLGHQTQKSDGQYNGYGLHDGPVPLRPLVKTHPETGRKSLLIGRHAHNIPGMDKAESERFLDGLIAFACQPPRVYHHHWAPGDVVVWDNRCLLHQATPWDMTQPRVMWHSRIAGDPASEAGLAA
modifications: Synthetic polypeptide, QYD53, D53
B3: QYD56: AAD-like enzyme, SEQ ID NO. 111 (protein)
chain: MARTFDVQPLDATFGAVISGVKLAALDDETWRELYATWLQYALLVFPGQHLSRDQQIAFARRFGPLEFEIIALSNVKSDGTIRSEVENDDVIKVLKGNMGWHADSTYMPVQAKGAVFTAEVVPSVGGQTGWADMRAAYDALDGATRQKVEQLSAYHSLHYSQSKLGHQHKPGSAYSGYGFHDGPVPLRPLVKTHPETGRKSLLIGRHAHNIPGMDKDESARFLEDLVASACQPPRIYHHTWAAGDAVVWDNRCLLHQATPWDMTQPRVMWHSRIAGDPLSEAALG
modifications: Synthetic polypeptide, QYD56, D56
B4: QYD57: AAD-like enzyme, SEQ ID NO. 113 (protein)
chain: MPQHFDVAPVDATFGAVVTNLKLANLDEPAFRELYATWLEHALLIFPGQFLTREQQIAFARRFGALEFEMAAISNVKSDGTLRREADNDDVVKILKGNMGWHADSTYMPLQAKGAVFSAKVVPSARGETGWADMRAAYDALDAAVRDRVERLSAYHSLHYSQAKAGFQHKDKKSEYSGYGLHDGPVPLRPLVKTHPETGRKSLLIGRHAHNIPGMEPEESERLLDGLVEFACQAPRTYHHSWKPGEAVIWDNRCLLHRAMPWDMTEPRIMWHSRIAGDPASEAAIN
modifications: Synthetic polypeptide, QYD57, D57
B5: QYD55: AAD-like enzyme, SEQ ID NO. 109 (protein)
chain: MARPFDIEPLDATFGAVVRGVKVAALDDVTWRALHDAWLQYALLIFPGQHLSREAQIAFAKRFGPLEFEMAPISNVRADGSVRAEAENDDVIKVLKGNMGWHCDSTYMPVQAKGAVFSAEVVPGAGGQTGWADMRAAYDALDGDLRARIENLSAYHSLYYSQAKLDHRPSKSSAYSGYGFHDGPVPLRPLVKVHPETGRKSLLIGRHAHNIPGMDADESTRLLQSLVDFACRPPRIYHHHWTAGDTVVWDNRCLLHQATPWDMTQPRVMWHSRIAGDPASEAALA
modifications: Synthetic polypeptide, QYD55, D55
B6: QYD52: AAD-like enzyme, SEQ ID NO. 103 (protein)
chain: MTRTLDIEPIDATFGAVVRGIKVAEVDDETFRALYDAWLQYALLIFPDQHLQRDQQIAFAKRFGPLEFEMTAISNVRSDGTLRLEKDNDDVMKILKGNMGWHHDSTYMPVQAKGAVFSAEEVPTIGGRTGFADMRAAYDALDPAMKARIEGLNAYHSLHYSQGKVGHQTRKADGEYSGYGLHDGPVPLRPLVKTHPETGRKSLLAGRHAHNIPGLSQEASDSLLRELIDFACQPPRIYHHDWTPGDAVVWDNRCLMHQATPWDMTQRRIMWHSRIAGDPASESSLAA
modifications: Synthetic polypeptide, QYD52, D52
B7: QYD44: AAD-like enzyme, SEQ ID NO. 87 (protein)
chain: MARAFDIAPLDATFGAVVTGVKLAEVDDAGWCDLHAAWLEHALLVFPDQHLTRAQQIAFARRFGPLEFEMAAISNVRPDGSLRVESDNDDMMKILKGNMGWHADSTYMPVQAKGAVFSAEVVPGSGGQTGFADMRAAYDALDENLKARVETLQARHSLHYSQSKLGHETKTADGEYSGYGLHDGPVPLRPLVKVHPETGRKSLLIGRHAHAIPGMERAESERLLQQLIDFACQPPRVYHHDWAPGDAVLWDNRCLLHQATPWDMTQKRIMWHSRIAGDPASETALAGAGP
modifications: Synthetic polypeptide, QYD44, D44
B8: QYD30: AAD-like enzyme, SEQ ID NO. 59 (protein)
chain: MALSLTPLTPGFVAEASGLDLTRPLDAAAVRTIEQAMDDYAVLVFRNQPLDQDQQIRFAQGFGPLDLGLRKVKGGAHRFDHAELADISNVTVDGSVAGRDHAKIVGNIANQLWHSDSSFQRPRAKYSMLSAVVVPQDGGQTEFADLRAAYDHLPDGMKAAIGDLQAVHYALHSRFLLGDTEYTQAQRDALPAVRWPLVQTDPRSGRKILFVGIHACEVVGMTVAEGRMLLLDLLEHATQREFVYRHHWRVGDLVMWDNTATLHRGRRFDLAQRRELRRATTEEVRLSAEARAAA
modifications: Synthetic polypeptide, QYD30, D30

Experiments:
[1] = system: Arabidopsis thaliana; assay: Herbicide resistance of transgenic Arabidopsis thaliana seedlings on plate medium (root growth); type: in vivo; details: Arabidopsis overexpressing the gene
Procedure, shortened: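 T2 lines overexpressed AAD from the AtUbi10 promoter with the MAS terminator, with hygromycin selection; two events per construct were tested on plates against 2,4-D, 2,4-DB sodium and MCPA. The screening medium was MS plus 0.3 μM 2,4-D. Seeds were stratified 3 days at 4 °C, grown at 22 °C on 16 h light, and root elongation was compared with wild type after one week.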

[2] = Chromogenic reaction of degrading herbicides in bacteria: 2,4-D; type: cell-based, Escherichia coli; details: recombinant E. coli expressing the gene, 2,4-D added to the medium, red = phenols
Procedure, shortened: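 E. coli BL21(DE3) carrying AAD12 or empty pET15b was induced with 0.1 mM IPTG plus 2 mM α-ketoglutarate and given 0.5 mM 2,4-D, then grown overnight at 28 °C. Supernatant was treated with pH 10 borate, potassium ferricyanide and 4-aminoantipyrine for 5 min at room temperature; red colour read at A510.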

[3] = system: Arabidopsis thaliana; assay: Herbicide resistance of transgenic Arabidopsis thaliana seedlings on plate medium (root growth); type: in vivo; details: plate medium with 2,4-D (0.3 μmol)
[4] = type: cell-based, Escherichia coli
[5] = Chromogenic reaction of degrading herbicides in bacteria: triclopyr; type: cell-based, Escherichia coli; details: recombinant E. coli expressing the gene
Method: To transform the plasmids to be tested, an AAD12-expressing plasmid and a blank control plasmid pET15b were respectively transformed into the protein expression E. coli BL21(DE3) strains. A monoclone was selected and inoculated in a 10 ml centrifuge tube with 3 ml LB medium, and cultivated at 37° C., 200 rpm for 6-8 hours. […] The temperature was switched to 28° C. and the cultivation continued overnight. In the next morning, 200 μL of each bacteria solution was taken and centrifuged to precipitate thallus, 180 μL of the supernatant was taken and added in a 96-well plate, and 20 μL of borate buffer of pH 10 was added. Then the mixture was added with 2 μL of 8% potassium ferricyanide and mixed well, followed by adding 2 μL of 2% 4-aminoantipyrine, and placed at room temperature for 5 min to observe the color and detect the A510 value. […]

Molecule	Resistance of transgenic Arabidopsis thaliana: 2,4-D [1]	Resistance of transgenic Arabidopsis thaliana: MCPA [1]	Chromogenic reaction of degrading herbicides in bacteria: 2,4-D [2]	Chromogenic reaction of degrading herbicides in bacteria: 2,4-D ([2]; listed as D51)	2,4-D resistance of T1 generation transgenic seedlings (seminal root growth) [3]	Chromogenic reaction of degrading herbicides in bacteria: MCPA [4]	Chromogenic reaction of degrading herbicides in bacteria: 2,4-D ([2]; listed as D53)	Chromogenic reaction of degrading herbicides in bacteria: 2,4-D ([2]; listed as D56)	Chromogenic reaction of degrading herbicides in bacteria: 2,4-D ([2]; listed as D57)	Chromogenic reaction of degrading herbicides in bacteria: 2,4-D ([2]; listed as D55)	Chromogenic reaction of degrading herbicides in bacteria: 2,4-D ([2]; listed as D52)	Chromogenic reaction of degrading herbicides in bacteria: 2,4-D ([2]; listed as D44)	Chromogenic reaction of degrading herbicides in bacteria: Triclopyr [5]	Chromogenic reaction of degrading herbicides in bacteria: Triclopyr ([5]; listed as D30)	Chromogenic reaction of degrading herbicides in bacteria: 2,4-D ([2]; listed as D30)
B1	Yes	Yes	Yes	could degrade 2,4-D; also recorded: capable of degrading 2,4-D	showing tolerance to 2,4-D	Yes									
B2	Yes	Yes	Yes		showing tolerance to 2,4-D	Yes	could degrade 2,4-D; also recorded: capable of degrading 2,4-D								
B3	Yes				showing tolerance to 2,4-D	Yes		could degrade 2,4-D; also recorded: capable of degrading 2,4-D							
B4	Yes	Yes	Yes		showing tolerance to 2,4-D	Yes			could degrade 2,4-D; also recorded: capable of degrading 2,4-D						
B5	Yes		Yes		showing tolerance to 2,4-D	Yes				could degrade 2,4-D; also recorded: capable of degrading 2,4-D					
B6	Yes		Yes		showing tolerance to 2,4-D	Yes					could degrade 2,4-D; also recorded: capable of degrading 2,4-D				
B7	Yes	Yes	Yes		showing tolerance to 2,4-D	Yes						could degrade 2,4-D; also recorded: capable of degrading 2,4-D			
B8	Yes		Yes			Yes							Yes	slight degradation	could degrade 2,4-D; also recorded: capable of degrading 2,4-D
